Experimental data taken from the nanobody polyreactivity screen of Harvey et al. (2022).

Assay: yeast display, Sf9 membrane polyspecificity reagent, FACS + sequencing; frameworks hold sequencing errors
Procedure, shortened: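 After 36–48 hours of galactose induction, yeast (Saccharomyces cerevisiae BJ5465) displaying a synthetic nanobody library were stained at 4 °C for 1 hour with 10% biotinylated, detergent-solubilized Sf9 membrane reagent. Streptavidin microbeads enriched the stained cells before FACS sorting into low and high (top ~1%) gates on anti-HA and streptavidin fluorescence. Each clone's polyreactivity label reflects its gate of origin.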

Sequence	polyreactivity (PSR sort gate)
QVQLVESGGGLVQAGGSLRLSCAASGFTFSWYALGWYRQAPGKERELVAAINWSGTSTYYADSVKGRFTISRDNAKNTVYLQMNSLKPEDTAVYYCNVVVYRWSPVSKLDYWGQGTQVTVSS	high polyreactivity
QVQLVESGGGLVQAGGSLRLSCAASGFTFSWYAMGRYRQAPGKERELVAAISSAGNTNYADSVKGRFTISRDNAKNTVYLQMNSLKPEDTAVYYCAKRDYWGQGTQVTVSS	high polyreactivity
QVQLVESGGGLVQAGGSLRLSCAASGFTFSWYAMGWYRQAPGKERELVAAINADGGTTYYADSVKGRFTISRDNAKNTVYLQMNRLKPEDTAVYYCAAELSVDKYDYWGQGTQVTVSS	low polyreactivity
QVQLVESGGGLVQAGGSLRLSCAASGFTFSWYAMGWYRQAPGKETELVAAITRSGGSTNYADSVKGRFTISRDNAKNTVYLQMNSLKPEDTAVYYCNAAGYRRSTWWYDYWGQGTQVTVSS	high polyreactivity
QVQLVESGGGLVQAGGSLRLSCAASGFTFSYNSMGRYRQATAKERELVARISRTGGSTNYADSVKGRFTISRDNAKNTVYLQMNSLKPEDTAVYYCATGYRYTYGSWGQGTQVTVSS	high polyreactivity
QVQLVESGGGLVQAGGSLRLSCAASGFTFSYYAMGWDRQAPGKERELVAVISNSDGSTYYADSVKGRFTISRDNAKNTVYLQMNSLNPEDTAVYYCAAVPLWDYKFFYYLLYDYWGQGTQVTVSS	low polyreactivity
QVQLVESGGGLVQAGGSLRLSCAASGFTFSYYAMGWYRQAPGKERELVAAISWSGTAMYYADSVKGRFTISRDNAKNTVYLQMNSLKPEDTAVYYCAAGYSASRKVDYWGQGTQVTVSS	high polyreactivity
QVQLVESGGGLVQAGGSLRLSCAASGFTFSYYAMGWYRQAPGKERELVAAITKRGGRTYYADSVKGRFTISRDNAKNTVYLQMNSLKPEDTAVYYCAVQARNAFYRPAFDYWGQGTQVTVSS	high polyreactivity
QVQLVESGGGLVQAGGSLRLSCAASGFTFSYYAMGWYRQAPGKERELVARISFSGTRTYYADSVKGRFTISRDNAKNTVYLQMNSLKQEDTAVYYCAARLGYVGITARYDYWGQGTQVTVSS	high polyreactivity
QVQLVESGGGLVQAGGSLRLSCAASGFTFSYYAMGWYRQAPGKERELVAVISDRGGITYYADSVKGRFTISRDIAKITVYLQMNSLKPEDTAVYYCAAQNPRYNYRYYYWGQGTQVTVSS	low polyreactivity
QVQLVESGGGLVQAGGSLRLSCAASGFTFSYYAMGWYRQATGKERELVAAITSGGSTDYADSVKGRFTISRDNAKNTVYLQMNSLKPEDTAVYYCAVTARGGYQGKGTRRIYGYWGHGTQVTVSS	high polyreactivity
QVQLVESGGGLVQAGGSLRLSCAASGFTFSYYARGWYRQAPGKARELVATISSGGITNYADSVKGRFTISRDNAKNTDYLQMNSLKPEDTAVYYCAAEPSWWNVFYPGYNYWGQGTQVTVSS	high polyreactivity
QVQLVESGGGLVQAGGSLRLSCAASGFTFSYYVMGWYRQAAGKERELVAAINRGGSTNYADSVKRRFTISRDNAKNTVYLQMNSLKPEDTAVYYCAARFPGYGYWGQGTEVTVSS	high polyreactivity
QVQLVESGGGLVQAGGSLRLSCAASGFTFTENVMGWYRQAPGKEREFVAAITYIGGRTYYADSVKGRFTISRDNAKNTVYFQMNSLKPEDTAVYYCAADWAYYVDSYLYYTFDYWGQGTQVTVSS	low polyreactivity
QVQLVESGGGLVQAGGSLRLSCAASGFTFTEYAMGWYRQAPGKERELVADITWSGGITYYADSVKGRFTISRDNAKNTVYLQMNSLKPEDTAVYYCNADYIYSYFYIRYDYWGQGTQVTVSS	low polyreactivity
QVQLVESGGGLVQAGGSLRLSCAASGFTFTFYALGWYRQAPGKERELVAAIRTSDGRTYYADSVKGRFTISRDNAKNTVYLQMNSLKPEDTAVYYCNARRYVGYDYWGQGSQVTVSS	high polyreactivity
QVQLVESGGGLVQAGGSLRLSCAASGFTFTGYAMGWYRQAPGKERELVAVISSRGGSTYYADSVKGRFTISRDNAKNTVYLQMNSLKPEDTAVYYCAARGYKGFSSPFGYWGQGTQVTVSS	high polyreactivity
QVQLVESGGGLVQAGGSLRLSCAASGFTFTKNTMGWYRQAPGKERELVAAITKSGGRTYYADSVKGRFTISRDNAKNTVYLQMNSLKPEDTAVYYCAADYVRNNYPYGYWGQGTQVTVSS	high polyreactivity
QVQLVESGGGLVQAGGSLRLSCAASGFTFTPNAMGWYRQAPGKERELVAVITWNGGTTYYADSVKGRFTISRDNAKNTVYLQMNSLKPEDTAVYYCNADGLILYDYWGQGTQVTVSS	low polyreactivity
QVQLVESGGGLVQAGGSLRLSCAASGFTFTPYAMGLYSQAPGKERELVAAITWRGGTYYADSVKGRFTISRDNAKKSVYLQMNSLKPEDTAVYYCAARVWRLYPSTYDYWGQGTQVTVSS	high polyreactivity
QVQLVESGGGLVQAGGSLRLSCAASGFTFTQYGMGWYRQAPGKEREFVATIRFSGDNTYYADSVKGRFTISRDNAKNTVYLQMNSLKPEDTAVYYCNADNRAFFVYPVSKRYDSWGQGSQVTVSS	low polyreactivity
QVQLVESGGGLVQAGGSLRLSCAASGFTFTRNAMGWYRQAPGKEMELVAGITFIGTSTYYADSVKGRFTISRDNAKNTVYLQMNSLKPEDTAVYYCAKEYDDYVYGYHYTRYGYWGQGTQVTVSS	low polyreactivity

Sequence	polyreactivity (PSR sort gate)
QVQLVESGGGLVQAGGSLRLSCAASGFTFTRNAMGWYRQAPGKERELVAAINFRSDRTFYADSVKGRFTISRDNAKNTVYLQMNSLKPEDTAVYYCAAQVGRGYEVYPVYKYGYWGQGTQVTVSS	high polyreactivity
QVQLVESGGGLVQAGGSLRLSCAASGFTFTRNTMGWYRQAPGKERELVAAITRGGSTNYADSVKGRFTITRDNAKNTVYLQMNSLKPEDTAVYYCAADAPFDRPYNYWGQGTQVTVSS	low polyreactivity
QVQLVESGGGLVQAGGSLRLSCAASGFTFTRYALGWYRQAPGKERELVAAISWSGGSTYYADSVKGRFTISRDNAKNTVYLQMNSLKPEDTAVYYCAKRGTVRQGGYGYWGQGTQVTVSS	high polyreactivity
QVQLVESGGGLVQAGGSLRLSCAASGFTFTRYAMGWSRQAPGKERELVAAMSRGGTTYADSVKGRFTISRDNAKNTVYLQMNSLKPDDTAVYYCNRLRYCYPQEFGYWGLGTQVTVSS	high polyreactivity
QVQLVESGGGLVQAGGSLRLSCAASGFTFTRYAMGWYIQAPGKERELVAAISRRSGGRTYYADSVKGRFTISRDNAKNTVYLQMNSLKPEDTAVYYCAADYSLRSGYEYWGQGTQVTVSS	high polyreactivity
QVQLVESGGGLVQAGGSLRLSCAASGFTFTRYAMGWYRQAPGKERELVAAISRSGTSTYYADSVKGRFTISRDNAKNTVYLQMNSLKPEDTAVYYCAAYFGTTGRYALYDYWGQGTQVTVSS	high polyreactivity
QVQLVESGGGLVQAGGSLRLSCAASGFTFTRYAMGWYRQAPGKERELVATITKRGGSTYYADSVKGRFTISRDNAKNTVYLQMNSLKPEDTAVYYCAADGASRALYDFWGQGTQVTVSS	high polyreactivity
QVQLVESGGGLVQAGGSLRLSCAASGFTFTRYAMGWYRQAPGKERELVATITKRGGSTYYADSVKGRFTISRDNAKNTVYLQMNSLKPEDTAVYYCAADGASRALYDYWGQGTQVTLSS	high polyreactivity
QVQLVESGGGLVQAGGSLRLSCAASGFTFTRYAMGWYRQAPGKERELVAVITSSGTSTYYADSVKGRFTISRDNAKNTVYLQMNSLKPEDTAVYYCAARTHRRDFYYWGQGTQVTVSS	high polyreactivity
QVQLVESGGGLVQAGGSLRLSCAASGFTFTTYAMGWYRQAPRQVRELVAAITRRGGSTYYADSVKGRFTISRDNEKNTVYLQMNSLKPEDTAVYYCAAGGGWGLDFWGQGTQVTVSS	high polyreactivity
QVQLVESGGGLVQAGGSLRLSCAASGFTFTTYVMGWSRQAPGKERELVAAISRRGTSTRYADSVKGRFTISRDNAKNTVYLQMNSLIPEDTAVYYCAADRPYSIVPYDYWGQGTQVTVSS	high polyreactivity
QVQLVESGGGLVQAGGSLRLSCAASGFTFTVYAMGWYRQAPGKERELVAAIRWSGGSTSYADSVKGRFTISRDNAKNTVYLQMNSLKPEDTAVYYCNARISDAHYQSNYFLVLYDYWGKGTQVTVSS	low polyreactivity
QVQLVESGGGLVQAGGSLRLSCAASGFTFTWNTMGWYRQAPGKERELVAAITKSAGSTYYADSVKGRFTISRDNAKNTVYLQMNSLKPEDTAVYYCAARRVSRGNSKFDYYWGQGTQVTVSS	high polyreactivity
QVQLVESGGGLVQAGGSLRLSCAASGFTFTYNAMGWYRQEPGKERELVAAITANGGGTNYADSVKGRFTISRDNAKNTVYLQMNSLKPEDTAVYYCAATIVVAVFESLGFYWYTEENYWGQGTLVTVSS	low polyreactivity
QVQLVESGGGLVQAGGSLRLSCAASGFTFTYYAMGWSRQAPGKERELVATISSGGSTYYADSVKGRFTISRDNAKYTVYLQMISLKPEDTAVYYCAVTTYSGLYGFDYWGQGTQVTVSS	low polyreactivity
QVQLVESGGGLVQAGGSLRLSCAASGFTFTYYAMGWYRPAPGKERELVAAISTGGSTYYADSVKGRFTISRDNAKNTVYLQMNSLKPEDTAVYYCNAKPRYRKADRLDYWGQGTQVTVSS	high polyreactivity
QVQLVESGGGLVQAGGSLRLSCAASGFTFTYYAMGWYRQAPAKERELVAAISSSGGRTYYADSVKGRFTISRDNAKNTVYLQMNSLKPEDTAVYYCAARSVSATPDFHYWGQGTQVTVSS	high polyreactivity
QVQLVESGGGLVQAGGSLRLSCAASGFTFTYYAMGWYRQAPGKERELVAAISGNGGSTYYADSVKGRFTISRDNAKNTVYLQMNSLKPEDTAVYYCNALPKSVGRWYRGDYWGQGTQVTVSS	high polyreactivity
QVQLVESGGGLVQAGGSLRLSCAASGFTFTYYAMGWYRQAPGKERELVAAISWSSDSTYYADSVKGRFTISRDNAKNTVYLQMNSLKPEDTAVYYWAARPGSKNVEYYYWGQGTQVTVSS	low polyreactivity
QVQLVESGGGLVQAGGSLRLSCAASGFTFTYYAMGWYRQAPGKERELVASISRRGGDTYYADSVKGRFTISRDNAKNTVYLQMNSLKPEDTAVYYCATRRRQALDGGYYYWGQGTQVTVSS	high polyreactivity
QVQLVESGGGLVQAGGSLRLSCAASGFTFTYYVMGWYRQAPGKVRELVAAITRGGITDYADSVKGRFTISRDNAKNTVDLQMNSLKPEETAVYYCAAYYSYVLDYDYWGQGTQVTVSS	low polyreactivity
